Biological target: leptin receptor (OBR-2K), fused to luciferase (OBR-2K Rluc) or to YFP (OBR-2K YFP) (UniProt P48357)
Assay: FRET or BRET; HEK293T cells co-transfected with OBR-2K Rluc (donor) and OBR-2K YFP (acceptor); pre-treated with homocysteine (1-10 mM) for 4 h, then leptin (10 nM) for 30 min; coelenterazine h 20 uM; result in mBRET units

## leptin receptor (OBR-2K), fused to luciferase (OBR-2K Rluc) or to YFP (OBR-2K YFP) (from UniProt P48357 22-1165)
  fold increase in BRET signal upon leptin stimulation: 3 fold

Source: PMC9746958
